Consider one molecule from publication PMC4835703, “Cellular uptake of exogenous calcineurin B is dependent on TLR4/MD2/CD14 complexes, and CnB is an endogenous ligand of TLR4” (Scientific Reports, 2016).

The assay has as its target T1, recombinant calcineurin B (UniProt P63098 1-170).
T1 construct: calcineurin B (CnB), regulatory subunit of calcineurin; recombinant protein (rhCnB); also called CnB; rhCnB; source: provided by Haikou Qili Pharmaceutical Co., Ltd
The experiment in a line: MST; purified TLR4 ectodomain or soluble CD14 labelled with DyLight 488, 20 nM in MST buffer; CnB titrated in 16 1:1 dilutions; 10 min incubation; Monolith NT.115, 25 °C, 50% LED power, 20% MST power. The settings on record: both partners purified.

B1: soluble CD14 (receptor)
chain: TTPEPCELDDEDFRCVCNFSEPQPDWSEAFQCVSAVEVEIHAGGLNLEPFLKRVDADADPRQYADTVKALRVRRLTVGAAQVPAQLLVGALRVLAYSRLKELTLEDLKITGTMPPLPLEATGLALSSLRLRNVSWATGRSWLAELQQWLKPGLKVLSIAQAHSPAFSCEQVRAFPALTSLDLSDNPGLGERGLMAALCPHKFPAIQNLALRNTGMETPTGVCAALAAAGVQPHSLDLSHNSLRATVNPSAPRCMWSSALNSLNLSFAGLEQVPKGLPAKLRVLDLSCNRLNRAPQPDELPEVDNLTLDGNPFLVPGTALPHEGSMN
modifications: labelled with DyLight 488 in the MST experiment and where it was the soluble partner in the ELISA; unlabelled where coated on the plate and in the co-IP
notes: CD14, soluble recombinant form; also called sCD14; purified soluble CD14; source: bought: Sino Biological, Inc
On to B1, for which the Kd turned out to be 1.01 µM.
